Source: US20240124536A1, “BASE EDITING OF TRANSTHYRETIN GENE” (Beam Therapeutics Inc., priority 2021, published 2024)
Strand notation (5' to 3'): a small letter for the sugar, then the base; units joined by * are phosphorothioate-linked, units joined directly phosphodiester-linked; [ ] holds rarer units or linkages, { } end groups; capitals alone tell only the bases. m = 2'-O-methyl; r = 2'-OH (RNA)

B1: GA459: Human TTR guide RNA, spacer GCAACUUACCCAGAGGCAAA, gRNA SEQ ID NO: 13 (nucleic acid)
guide: GCAACTTACCCAGAGGCAAAGTTTTAGAGCTAGAAATAGCAAGTTAAAATAAGGCTAGTCCGTTATCAACTTGAAAAAGTGGCACCGAGTCGGTGCTTTT
modifications: chemistry not given here
B2: GA461: Human/Cyno TTR guide RNA, spacer UACUCACCUCUGCAUGCUCA, gRNA SEQ ID NO: 15 (nucleic acid)
guide: TACTCACCTCTGCATGCTCAGTTTTAGAGCTAGAAATAGCAAGTTAAAATAAGGCTAGTCCGTTATCAACTTGAAAAAGTGGCACCGAGTCGGTGCTTTT
modifications: chemistry not given here
B3: GA460: Human/Cyno TTR guide RNA, spacer UAUAGGAAAACCAGUGAGUC, gRNA SEQ ID NO: 14 (nucleic acid)
guide: TATAGGAAAACCAGTGAGTCGTTTTAGAGCTAGAAATAGCAAGTTAAAATAAGGCTAGTCCGTTATCAACTTGAAAAAGTGGCACCGAGTCGGTGCTTTT
modifications: chemistry not given here
B4: GA457: Human TTR guide RNA, spacer GCCAUCCUGCCAAGAAUGAG, gRNA SEQ ID NO: 11 (nucleic acid)
guide: GCCATCCTGCCAAGAATGAGGTTTTAGAGCTAGAAATAGCAAGTTAAAATAAGGCTAGTCCGTTATCAACTTGAAAAAGTGGCACCGAGTCGGTGCTTTT
modifications: chemistry not given here
B5: GA458: Cyno TTR guide RNA, cynomolgus equivalent of GA457, spacer GCCAUCCUGCCAAGAACGAG, gRNA SEQ ID NO: 29 (nucleic acid)
guide: mG*mC*mC*rArUrCrCrUrGrCrCrArArGrArArCrGrArGrGrUrUrUrUrArGrArGrCrUrArGrArArArUrArGrCrArArGrUrUrArArArArUrArArGrGrCrUrArGrUrCrCrGrUrUrArUrCrArArCrUrUrGrArArArArArGrUrGrGrCrArCrCrGrArGrUrCrGrGrUrGrCrU*mU*mU*mU

How the values were obtained:
human TTR gene = assay: Editing activity in human primary hepatocytes (gRNA + ABE8.8 mRNA co-transfection, NGS of PCR amplicons); type: cell-based; details: for Human hepatocytes - Editing %, 625, rep 1 / Human hepatocytes - Editing %, 625, rep 2: 625 ng/RNA/mL; for Human hepatocytes - Editing %, 1250, rep 1 / Human hepatocytes - Editing %, 1250, rep 2: 1250 ng/RNA/mL; for Human hepatocytes - Editing %, 2500, rep 1 / Human hepatocytes - Editing %, 2500, rep 2: 2500 ng/RNA/mL; for editing activity in human primary hepatocytes (in words): ABE8.8 mRNA co-transfection
Description: With this example, gRNA sequences were identified that permit ABE8.8 (and other ABE variants containing Streptococcus pyogenes Cas9, such as ABE7.10, or another Cas protein that can use the NGG PAM) to either: 1) disrupt the start codon, or 2) disrupt splice sites, whether donors or acceptors, via A→G editing within its editing window (roughly positions 4 to 7 in the 20-nt protospacer region of DNA). Five sequences were identified throughout the human TTR gene (Table 1). gRNAs were synthesized matching each of the protospacer sequences and otherwise conforming to the standard 100-nt Streptococcus pyogenes CRISPR gRNA sequence, with each gRNA molecule having a minimal degree of chemical modifications (specified in Table 1).
(§1) The mRNA, and corresponding amino acid, sequence of the ABE8.8 (MA004) used in shown below in Table 11. Three days after transfection, genomic DNA was harvested from the hepatocytes, and assessed for base editing with next-generation sequencing of PCR amplicons generated around the target splice site. […] See FIGS. 5A-5C, FIG. 6, and Tables 2-3.

TTR on-target site = assay: Off-target validation in human primary hepatocytes: editing at the on-target site; type: cell-based; details: for on-target site editing efficiency (in words): treated vs control, human primary hepatocytes
Description: (§2) Several candidate off-target sites were analyzed for off-target editing in human primary hepatocytes.

[1] = test system: potential off-target candidate sites
Description: With a view towards establishing the safety of a base-editing therapy knocking down of TTR in the human liver in vivo, off-target mutagenesis analysis is assessed in primary human hepatocytes. […] The in vitro biochemical assay ONE-seq was used to generate a list of candidate off-target sites and to determine the propensity of a ribonucleoprotein comprising the ABE8.8 base editor protein and each of the three protospacer guides sequences (GA457, GA460, and GA461) to cleave oligonucleotides in a library.
For human ONE-seq libraries, the reference human genome (GRCh38, Ensembl v98, chromosomes ftp://ftp.ensembl.org/pub/release-98/fasta/homo_sapiens/dna/Homo_sapiens.GRCh38.dna.chromosome.{1-22,X,Y,MT}.fa and ftp://ftp.ensembl.org/pub/release-98/fasta/homo_sapiens/dna/Homo_sapiens.GRCh38.dna.nonchromosomal.fa), was searched for potential off-target sites with up to 6 mismatches to the protospacer sequence above, and sites with up to 4 mismatches plus up to 2 DNA or RNA bulges, using Cas-Designer v1.2 (http://www.rgenome.net/cas-designer/).
For each site, the total number of edited reads was normalized to the total number of edited reads assigned to the on-target site, and this ratio defines the ONE-seq score for the site. Sites were ranked by ONE-seq score, and those with a score equal to or larger than 0.001, were selected for validation. A score equal to or larger than 0.001 encompasses sites that have down to 1000-fold less editing activity in the biochemical assay compared to editing of the on-target site. This threshold is based on the premise that in cells, if there is 10000 on-target editing, 1/1000-fold less editing activity would translate to % 0.1% off-target editing, which falls below the lower limit of detection of editing by NGS.
as §2

[2] = test system: cynomolgus monkey TTR gene; assay: Editing activity in cyno primary hepatocytes (gRNA + ABE8.8 mRNA transfection, NGS); type: cell-based; details: for Cyno hepatocytes - Editing %, 156.25: 156.25 ng/RNA/mL; for Cyno hepatocytes - Editing %, 312.5: 312.5 ng/RNA/mL; for Cyno hepatocytes - Editing %, 625: 625 ng/RNA/mL; for Cyno hepatocytes - Editing %, 1250: 1250 ng/RNA/mL; for Cyno hepatocytes - Editing %, 2500: 2500 ng/RNA/mL; for Cyno hepatocytes - Editing %, 5000: 5000 ng/RNA/mL; for editing activity in cynomolgus primary hepatocytes (in words): ABE8.8 mRNA co-transfection
Description: as §1

Row | Molecule | Human hepatocytes - Editing %, 625, rep 1 (human TTR gene) [%] | Human hepatocytes - Editing %, 625, rep 2 (human TTR gene) [%] | Human hepatocytes - Editing %, 1250, rep 1 (human TTR gene) [%] | Human hepatocytes - Editing %, 1250, rep 2 (human TTR gene) [%] | Human hepatocytes - Editing %, 2500, rep 1 (human TTR gene) [%] | Human hepatocytes - Editing %, 2500, rep 2 (human TTR gene) [%] | on-target site editing efficiency (in words) (TTR on-target site) | off-target editing at candidate off-target sites (in words) [1] | editing activity in human primary hepatocytes (in words) (human TTR gene) | Cyno hepatocytes - Editing %, 156.25 [2] [%] | Cyno hepatocytes - Editing %, 312.5 [2] [%] | Cyno hepatocytes - Editing %, 625 [2] [%] | Cyno hepatocytes - Editing %, 1250 [2] [%] | Cyno hepatocytes - Editing %, 2500 [2] [%] | Cyno hepatocytes - Editing %, 5000 [2] [%] | editing activity in cynomolgus primary hepatocytes (in words) [2] | also measured
1 | B1 | 3.79 | 3.89 | 5.46 | 6.15 | 8.5 | 8.69 | high editing efficiency | little to no off-target editing |  |  |  |  |  |  |  |  | SUM Editing % - Human Primary Hepatocytes, Treat rep 1 (TTR on-target site; On-target GCAACTTACCCAGAGGCAAA): 14.17%; SUM Editing % - Human Primary Hepatocytes, Treat rep 2 (TTR on-target site; On-target GCAACTTACCCAGAGGCAAA): 14.29%
2 | B2 | 21.81 | 22.31 | 32.82 | 32.38 | 40.42 | 39.43 | high editing efficiency | little to no off-target editing | high editing activity | 0.07 | 7.45 | 13.16 | 19.46 | 29.8 | 37.53 | high editing activity | SUM Editing % - Human Primary Hepatocytes, Treat rep 2 (TTR on-target site; On-target TACTCACCTCTGCATGCTCA): 58.9%
3 | B3 | 23.77 | 22.27 | 38.33 | 35.8 | 47.61 | 47.79 | high editing efficiency | little to no off-target editing | high editing activity | 1.62 | 11.22 | 18.44 | 31.71 | 38.25 | 40.16 | high editing activity | SUM Editing % - Human Primary Hepatocytes, Treat rep 1 (TTR on-target site; On-target TATAGGAAAACCAGTGAGTC): 76.4%; SUM Editing % - Human Primary Hepatocytes, Treat rep 2 (TTR on-target site; On-target TATAGGAAAACCAGTGAGTC): 74.3%
4 | B4 | 17.24 | 15.39 | 26.49 | 24.86 | 33.96 | 31.31 | high editing efficiency | little to no editing | high editing activity |  |  |  |  |  |  |  | % Editing - human primary hepatocytes, Net (TTR on-target site; On-target GCCATCCTGCCAAGAATGAG): 54.1%; % Editing - human primary hepatocytes, Treated (TTR on-target site; On-target GCCATCCTGCCAAGAATGAG): 54.21%; net editing at all off-target sites ([1]; 47 candidate off-target sites, human primary hepatocytes): less than 0.40
5 | B5 |  |  |  |  |  |  |  |  |  | 6.06 | 10.65 | 16.07 | 22.74 | 27.25 | 35.91 | high editing activity | 
